These results are taken from publication PMC7343212, “Lactoferrin-Hexon Interactions Mediate CAR-Independent Adenovirus Infection of Human Respiratory Cells” (Journal of Virology, 2020).

Experiment in all cases: SPR
On the technique in general: Surface plasmon resonance follows binding to a sensor surface in real time, without labels.

Test [1] deals with HAdV-B35 hexon (human adenovirus B35 (strain Holden)).
The target of test [2] is HAdV-A31 hexon (human adenovirus A31 (strain 1315/63)).
Test [3] deals with HAdV-C5 hexon (human adenovirus C5 (strain Ad75)) (UniProt P04133).

As usually defined, the Kd is the equilibrium constant for the complex coming apart. Read a low Kd as a tighter complex. On to “human lactoferricin 1-49 (hLfcin1-49) (peptide)”, for which the Kd in test [1] was found to be 22100 nM; in test [2], 187000 nM; in test [3], 730 nM.
By koff is commonly meant the first-order rate constant of dissociation. Low values mean slow dissociation, high ones fast dissociation. By kon is commonly meant a measure of how fast the partners come together. Read a high kon as faster complex formation. In test [1], “human lactoferrin (hLF) (natural protein)” returned a Kd of 151 nM, a koff of 0.00354 s⁻¹ and a kon of 25000 M⁻¹ s⁻¹. In test [2], the equilibrium dissociation constant (Kd) was 827 nM, the koff is 0.0101 s⁻¹ and the association rate constant (kon) came out at 12000 M⁻¹ s⁻¹. For the same substance, in test [3], the Kd was 29 nM, the off-rate constant (koff) came to 0.00154 s⁻¹ and the kon was 53000 M⁻¹ s⁻¹.
